Source: IntAct's records for PubMed 18796637

B1: B-box zinc finger protein 22 (Arabidopsis thaliana (Mouse-ear cress)), Q9SYM2 (parent)
chain: MKIQCNVCEAAEATVLCCADEAALCWACDEKIHAANKLAGKHQRVPLSASASSIPKCDICQEASGFFFCLQDRALLCRKCDVAIHTVNPHVSAHQRFLLTGIKVGLESIDTGPSTKSSPTNDDKTMETKPFVQSIPEPQKMAFDHHHHQQQQEQQEGVIPGTKVNDQTSTKLPLVSSGSTTGSIPQWQIEEIFGLTDFDQSYEYMENNGSSKADTSRRGDSDSSSMMRSAEEDGEDNNNCLGGETSWAVPQIQSPPTASGLNWPKHFHHHSVFVPDITSSTPYTGSSPNQRVGKRRRRF
partner: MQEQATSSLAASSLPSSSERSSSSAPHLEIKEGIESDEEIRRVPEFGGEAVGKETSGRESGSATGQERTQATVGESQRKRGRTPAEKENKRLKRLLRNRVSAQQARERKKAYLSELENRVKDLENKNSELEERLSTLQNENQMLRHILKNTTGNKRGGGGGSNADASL

Variants of: B1
Details: with hy5_arath HY5, O24646

Variant	effect of a mutation on the interaction
D81A	disrupting interaction
D72A	disrupting interaction
